Measured values: the supplement of paper PMC10567573

B1: SMARCE1 (parent)
chain: YHNSPAYLAYINAKSRAEAALEEE

Variants of: B1
Assay: protein stability index of a GFP-peptide fusion (GPS, HEK-293T) (PSI 1-6); higher = more stable
Conditions: c terminus: a fixed tail appended
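Also: lentivirally expressed fusions sorted by FACS into six bins by GFP to DsRed ratio, PSI derived from sequencing read proportions per bin multiplied by bin number.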

Protein stability index of substitutions, site by site:
Y10: K 3.03; H 1.68; I 3
S15: Q 2.17; F 2.06; T 2; K 2.31; D 2.06; M 2.14; I 2.25
P5: Y 2.31; I 2.05; K 2.06; N 2.56; E 1.82; C 3.56; S 2.67; Q 4.02; L 2.92; W 2.98; G 3.04
A13: L 2.21; M 3.18; K 2.52; D 1.94
N3: W 1.89; T 2.19; V 2.03; K 2.89; D 1.89; I 2.08; Y 2.87; L 1.95
E18: M 2.11; Y 2.15; W 2.76; A 2.58; R 1.97; C 2.46; V 2.76; H 2.33
R16: C 2.72; F 1.77; D 2.4; E 2.33; V 2.99; K 2.4; I 2.2; G 1.74
A19: D 2.33; E 2.69; V 2.58; C 2.84; L 2.49; I 2.05; G 2.56; W 2.48; T 2.41
L21: K 2.51; G 2.15; Q 2.07; R 2.1; H 2.77; T 1.59; M 2.04; S 1.95
N12: F 2.28; I 1.64; R 2.04; E 1.93; G 1.65; A 1.77; W 2.09; L 2.1; D 2.26; V 2.44
Y1: E 5.26; F 2.02; K 4.96; M 5.08; R 4.86; D 5.28; G 4.65; S 4.85; T 5.26
A9: P 3.18; T 2.24; I 2.81; W 2.21; Y 1.74
E22: F 2.04; N 2.44; T 2.36; Y 1.9; L 4.41; G 2.67
S4: R 2.19; K 1.77; N 2.23; H 1.91; E 2.89
H2: A 2.37; C 2.12; W 2.66; M 1.96
I11: W 2.35; L 2.24; K 2.59; C 1.66; P 3.06
Y7: R 2.76; S 2.76; F 2.64; K 3; C 2.26; M 2.4; W 2.31
A17: I 1.93; E 1.75; T 2.02; S 2.06; K 1.53; H 2.22
A20: W 1.93; C 2.27; L 2.15; M 1.32; I 2.25; D 2.97; V 2.56
A6: V 2.02; K 2.22; E 2.58; Q 2.11
E23: D 1.54; M 1.52; H 2.13; W 1.81; V 2.44; P 2.58; I 2.79; N 1.57; C 2.79
E24: G 1.95; L 1.56; N 2.47; A 2.12; S 3.47; H 1.91; P 1.45; Q 3.45; M 2.55; R 2.71; K 2.91
L8: Q 3.47; N 3.65; C 3.05; W 2.04; T 2.81; D 2.22; E 1.8
K14: H 2.16; S 1.51; F 2.35; L 1.9; G 2.89; W 1.62
